# Source: the RNAGym collection of RNA variant scans (doi:10.1073/pnas.2313332121)
# This sample holds only a part of the variants without activity.
# B1: TPR 5TU (parent)
# chain: GGAUCUUCUCGAUCUAACAAAAAAGACAAAUCUGCCACAAAGCUUGAGAGCAUCUUCGGAUGCAGAGGCGGCAGCCUUCGGUGGCGCGAUAGCGCCAACGUUCUCAACUAUGACACGCAAAACGCGUGCUCCGUUGAAUGGAGUUUAUCAUG
# Variants of: B1
# Test: polymerase ribozyme fitness, log enrichment relative to wild type (log ratio); higher = more active; in vitro selection for triplet polymerase activity
# How it was run: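 To select mutant libraries of each subunit of a heterodimeric triplet polymerase ribozyme, built by PCR and transcribed, each was annealed with a biotinylated primer, partner subunit and triplets, then incubated frozen at −7 °C. Extended constructs were gel-excised, captured on streptavidin beads and amplified by RT-PCR, in one round carried out in triplicate. Illumina sequencing of input and output libraries kept genotypes with ≥10 input reads and ≥1 read per output. Fitness is the base-2 logarithm of genotype enrichment relative to wild-type enrichment, from inverse-variance-weighted replicate averages.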
row,Variant,polymerase ribozyme fitness (log ratio)
1,GGAUCUUCUCGAUCUAACAAAAAAGACAAAUCUGCCACUAAGCUUGAGAGCAUCUUCGGAUGCAGAGGCGGCAGCCUUCGGAGGCGCGAUAGCGCCAACGUUCUCGACUAUGACACGCAAAACGCGUGCUCCGUUGAAUGGAGUUUAUCAUG,-1.88
2,GGAUCUUCUCGAUCUAACAAAAAAGACAAAUCUGCCACUAAGCUUGAGAGCAUCUUCGGAUGCAGAGGCGGCAGCCUUCGGUGGCGCGAUAGCGCCAACGUUCUCAACUAUGCCACGCAAAACGCGUGCUCCGUUGAAUGGAGUUUAUCAUG,-4.11
3,GGAUCUUCUCGAUCUAACAAAAAAGACAAAUCUGCCACUAAGCUUGGGAGCAUCUUCGGAUGCAGAGGCGGCAGCCUUCGGUGGCGCGAUAGCGCCAACGUUCUCAACUAUGACACGCAAAACGCGUGCUCCGUUGAAGGGAGUUUAUCAGG,≤ -4.2
4,GGAUCUUCUCGAUCUAACAAAAAAGACAAAUCUGCCACUAAGCUUGAGAGCAUCUUCGGUUGCAGAGGCGGCAGCCUUCGGUGGCGCGAUAGCGCCAACGUUCUCAACUAUGACACGCAAAACGCGUGCUCCGUUGAAUGGAGUUAAUCAUG,-3.58
5,GGAUCUUCUCGAUCUAACAAAAAAGACAAAUCUGCCACUAAGCUUGAGAGCAUCUUCGGAUGCAGAGGCGGCAGCCUUCGGUCGCGCGAUAGCGCCAACGUUCUCAACUAUGACACGCAAAACGCGUGCUCCGUUGAAUGGAGUUUAUCAUG,-2.01
6,GGAUCUUCUCGAUCUAACAAAAAAGACAAAUCUGCCACUAAGCUUGAGAGCAUCUUCGGAUGCAGAGGCGGCAGCCUUCGGUGGCGCGAUAGCGCCAACGUUCUCAACUAUGACACGCAAAACGCGUGCUCCGUUGAAUGUAGUUUAUCAUG,-1.56
7,GGAUCUUCUCGAUCUAACAAAAAAGACAAAUCUGCCACUAAGCUUGAGAGCAUCUUCGGAUGCAGAGGCGGCAGCCAUCGCUGGCGUGAUAGCGUCACCGUUCUCAACUAUGACACGCAAAACGCUUGCUCCGUUCAAUGGAGUUUAUCAUG,≤ -4.2
8,GGAUCUUCUCGAUCUAACAAAAAAGACAAAUCUGCCACUAAGCUUGAGAGCAUCUUCGGAUGCAGAGGCGGCAGCCUUCGGUGGCGCGAUAGCGCCAACGUUCUCAACUAUGACACGCAAAACGCCUGCUCCGUUGAAUGGAGUUUAUCAUG,-0.865
9,GGAUCUUCUCGAUCUAACAAAAAAGACAAAUCUGCCACGAAGCUUGAGAGCAUCUUCGGAUGCAGAGGCGGCAGCCUUCGGUGGCGCGAUAGCGCCAACGUUCUCAACCAUGACACGCAAAACGCGUGCUCCGUUGAAUGGAGAUUAUCAUG,-3.59
10,GGAUCUUCUCGAUCUAACAAAAAAGACAAAUCUGCCACUAAGCUUGAGAGCAUCUUCGGUUGCAGAGGCAGCAGCCUUCGGUGGCGCGAUAGCGCCAACGUUCUCAACUAUGACACGCAAAACGCGUGCUCCGUUGAAUGGAGUUUAUCAUG,≤ -4.2
11,GGAUCUUCUCGAUCUAACAAAAAAGACAAAUCUGCCACUAAGCUUGAGCGCAUCAUCGGAUGCAGAGGCGGCAGCCUUCGGUGGCGUGAUAGCGCCAACGUUCUCAACUAUGACAGGCAAAACGCGUGCUCCGUUGAAUGGAGUUUAUCAUG,≤ -4.2
12,GGAUCUUCUCGAUCUAACAAAAAAGACAAAUCUGCCACUAAGCUUGAGAGCAUCUUCGGAUGCAGAGGCGGCAGCCUUCGGUGGCGCGAUAGUGCCAACGUUCUCAACUAUGACACGCAAAACGCGUGCUCCGUUGAAUGGAGUUUAUCAUG,-3.36
13,GGAUCUUCUCGAUCUAACAAAAAAGACAAAUCUGCCACUAAGCUUGAGAGCGUCUUCGGAAGCAGAGGCGGCUGCCUUCGGUGGCGCGAUAGCGCCAACGUUCUCAACUAUGACUCGCAAAACGCGUGCUCCGUUGAAUGGAGUUUAUCCUG,≤ -4.2
14,GGAUCUUCUCGAUCUAACAAAAAAGACAAAUCUGCCACUAAGCUUGAGAGCAUCUUCGGAUGCAGAGGCGGCAGCCUUCGGUGGCGCGAUAGCGCCUACGUUCUCAACUAUGACACGCCAAACGCGUGCUCCGUUGAAUGGAGUUUAUCAUG,-3.36
15,GGAUCUUCUCGAUCUAACAAAAAAGACAAAUCUGCCACUAAGCUUGAGAGCAUCAUCGUAUGCAGAGGCGGCAGCCUUCGGUGGCGCGAUAGCGCCAACGUUCUCAACUAUGACACACAAUACGCGUGCUCCGUUGAAUGGAGUUUAUCAUG,-1.11
16,GGAUCUUCUCGAUCUAACAAAAAAGACAAAUCUGCCACUAAGCUUGAGAGCAUCUUCGGAUGCAGAGGCGGCAGCCUUCGGUGGCGCGAUAGCGCCAAAGUUCUCAACUAUGACACGCAAAACGCGUGCUCCGUUGAAUGGAGUUUAUCAUG,-3.7
17,GGAUCUUCUCGAUCUAACAAAAAAGACAAAUCUGCCACUAAGCUUGAGAGCAACUUCGGAUGCAGAGGCGGCAGCCUUCGGUGGCUCGAUAGCGCCAACGUUCUCAACUAUGACACGCAAAACGCGUGCUCCGUUGAAUGGAGUUUAUCAUG,-3.7
18,GGAUCUUCUCGAUCUAACAAAAAAGACAAAUCUGCCACUAAGCUUGAGAGCAUCUUCGGAGGCAGAGGCGGCAGCCUUCGGUGGUGCGAUAGUGCCAACGUUCUCAACUAUGACACGCAAAACGCGUGCUCCGAUGAAUGGAGUUUAUCAUG,≤ -4.2
19,GGAUCUUCUCGAUCUAACAAAAAAGACAAAUCUGCCACUAAGCUUGAGAGCAUCUUCGGAAGCCGAGGCGGCAGCCUUCGGUGGCCCGAUAGCGCCAACGUUCUCAACUAUGACACGCAAAACGCGUGCUCCGUUGAAUGGAGUUUAUCAUG,≤ -4.2

row,Variant,polymerase ribozyme fitness (log ratio)
1,GGAUCUUCUCGAUCUAACAAAAAAGACAAAUCUGCCACUAAGCUUGAGAGCAUCUUCGGAUGCAGAGGCGGCAGCCUUCGGUGGCGCGAUAGCGCCAACGUUCUCAACUAUGACACGCAAAACGCGUGCUCCGUUGAAUGGAGCUUAUCAUG,-2.52
2,GGAUCUUCUCGAUCUAACAAAAAAGACAAAUCUGCCACUAAGCUUGAGAGCAUCGUCUGAUGCAGAGGCGGCAGCCUGCGGUGGUGCGACAGCGCCAACGUUCUAAACUAUGACACGCAAAACGCGUGCUCCGUUUAAUGGCGUUUAUCAUG,≤ -4.2
3,GGAUCUUCUCGAUCUAACAAAAAAGACAAAUCUGCCACUUAGCUUGAGAGCAUUUUCGGAUGCAGAGGCGGCAGCCUUCGGUGCAGCGAUACCGCCAACGUUCUCAACUAUGACACGCAAAACGCGUACUCCGUUGAAUGGAGUUUAUCAUG,≤ -4.2
4,GGAUCUUCUCGAUCUAACAAAAAAGACAAAUCUGCCACUAAGCUUGAGAGCAUCUUCGGAUGCAGAGGCGGCAGCCUUCAGUGGCGCGAUAGCGCCAACGUUCUCAACUAUGACACGCAAAAGGCGUGCUCCGUUGAAUGGAGUUUAUCAUG,-2.65
5,GGAUCUUCUCGAUCUAACAAAAAAGACAAAUCUGCCACGAAGCUUGAGAGCAUCGUCGGAUGCAGAGGCGGCAGCCUUCGGUCGCGCCAUAGCGCCAACCUUCUCAACUAUGACACGCAAAACGCGUGCUCCGUUGAAUUAAGUGUAUCAUG,≤ -4.2
6,GGAUCUUCUCGAUCUAACAAAAAAGACAAAUCUGCCACUAAGCUUGAGAGCAACUUCGGAUGCAGAGGCGGCAGCCUUCGGUGGCGCGAUAGCGCCAACGUUCUCAACUAUGACACGCAAAACGCGUGCUCCGUUGAAUGGAGUUUAUCAUG,-2.91
7,GGAUCUUCUCGAUCUAACAAAAAAGACAAAUCUGCCACUAAGUUUGAGAGCAUCUUCGGAAGCAGAGGCGGCAGCCUUCGGUGGCGCGAUAGCGCCAACGUUCUCAACUAUGACACGCAAAACGCGUGCUCCGUGAAAUGGAGUUUAUCAUG,≤ -4.2
8,GGAUCUUCUCGAUCUAACAAAAAAGACAAAUCUGCCACUCAGCUUGAGAGCAUCUUCGGAUGCAGAGGCGGCAGCCUUAGGCGGCGCGAUAGCGCAAACGUUCUCAACGAUGACACGCUAAACGCGUGCUCCGUUGAAUGGAAUUUAUCAUG,≤ -4.2
9,GGAUCUUCUCGAUCUAACAAAAAAGACAAAUCUGCCACUAAGCUUGAGAGCGUCUUCGGAUGCAGAGGCGGCAGCCUUGGGUGCCGCGAUAGCGCCAACGUUCUCAAUUAUGACACGCAAAACGCGUGCUCCGUUGAAUGGAGUUUAUCAUG,≤ -4.2
10,GGAUCUUCUCGAUCUAACAAAAAAGACAAAUCUGCCACUAAGCUUGAGAGCAUCUUCGGAUGCAGAGGCGGCAGCCUUCGGUGGCGCGAUAGCGCCAACGGUCUCAACUAUGACACGCAAAACGCGUGCUCCGUUGAAUGGAGUUUAUCAUG,-2.05
11,GGAUCUUCUCGAUCUAACAAAAAAGACAAAUCUGCCACUAAGCUUGAGAGCAUCUUCGGAUGCAGAGGCGGCAGCCUUCGGUGGCGCGAUUGCGCCAACGUUCUCAACUAUGACACGCAAAACGCGUGCUCCGUUGAAUGGAGUUUAUCAUG,≤ -4.2
12,GGAUCUUCUCGAUCUAACAAAAAAGACAAAUCUGCCACUAAGCUUGAGAGCAUCUUCGGAUGUAGAGGCGGCAGGAUUCGGUGGCGGGAUAGCGCCAACGUUCUUAACUAUGACACGCAAAACGCGUGUUCCGUUGAAUGGACUUUAUCAUG,≤ -4.2
13,GGAUCUUCUCGAUCUAACAAAAAAGACAAAUCUGCCACUAAGCGUGAGAGCAUCUUCGGAUGCAGAGGCGGCAGCCUUCGGUGGCGCGAUAGCGCCAACGUUCUCAACCAUGACACGCAAAACGCGUGCUCCGUUGAAUGGAGUUUAUCAUG,≤ -4.2
14,GGAUCUUCUCGAUCUAACAAAAAAGACAAAUCUGCCACUAAGCUUGAGAGCAACUUCGGAUGCAGAGGCGGCAGCCUUCGGUGGAGCGAUAGCGCCAACGUUCUCAACUAUGACACGCAAAACGCGUGCUCCGUUGAAUGGAGUUUAUCAUG,≤ -4.2
15,GGAUCUUCUCGAUCUAACAAAAAAGACAAAUCUGCCACUAAGCUUGAGAGCAUUUUCGGAUGCAGAGGCGGCAGCCUUCGGUGGCGAGAUAGCGCCAAAGUUCUCAACUAUGACACGCAAAACGCGUGCUCCUUUGAAUGGAGUUUAUCAUG,≤ -4.2
16,GGAUCUUCUCGAUCUAACAAAAAAGACAAAUCUGCCACUAAGCUUGAGAGCAACUCCGGCAGCAGAGGCGGCAGCCUUCGGUGGCUCGGUAGCGCCAACGUUCUCAACUAUGACACGCAAAACGCGUGCUCCGUUGAAUGGAGUUUAUCAUG,-4.17
17,GGAUCUUCUCGAUCUAACAAAAAAGACAAAUCUGCCACUAAGCUUGAGAGCAUCUUCGGAUGCAGAGGCGGCAGCCUUCGGUGGCGCGAUAGCGCCAACGUUGUCAACUAUGACACGCAAAACGCGUGCUCCGUUGAAUGGAGUUUAUCAUG,-4.14
18,GGAUCUUCUCGAUCUAACAAAAAAGACAAAUCUGCCACUAAGCUUGAGAGCAUCUUCGGAUGCAGAGGCGGCAGCCUUCGGUGGCGCGAUAGCGCCAACGUCCUCAACUAUGACACGCAAAACGCGUGCUCCGUUGAAUGGAGUUUAUCAUG,-4.01
19,GGAUCUUCUCGAUCUAACAAAAAAGACAAAUCUGCCACUAAGCUUGAGAGCAUCUUCGGAUACAGAGGCGGCAGCCUUCGGUGGCGCGAUAGCGCCAACGUUCUCAACUAUGACACGCAAAACGCGUGCUCCGUUGAAUGGAGUUUAUCAUG,-2.58
